Results on 27 substances are retold here after EP1746107B1.

Like-named read-outs stand apart in the source and are kept apart here.

Assay [1] deals with human C1q (Quidel, San Diego, CA) (human) (UniProt P02745). Description: C1q binding ELISA (antibody coated, 2 µg/ml C1q added).
Assay [2] shares this target. The assay is described as above. The source holds these as a separate data set.
The target is the same in assay [3]. Description: cell-based or functional assay.
For assay [4], the target named is CD20 antigen on WIL2-S cells (UniProt P11836). Description: flow cytometry on WIL2-S cells expressing CD20.
Sequence of CD20 antigen on WIL2-S cells (P11836 whole entry): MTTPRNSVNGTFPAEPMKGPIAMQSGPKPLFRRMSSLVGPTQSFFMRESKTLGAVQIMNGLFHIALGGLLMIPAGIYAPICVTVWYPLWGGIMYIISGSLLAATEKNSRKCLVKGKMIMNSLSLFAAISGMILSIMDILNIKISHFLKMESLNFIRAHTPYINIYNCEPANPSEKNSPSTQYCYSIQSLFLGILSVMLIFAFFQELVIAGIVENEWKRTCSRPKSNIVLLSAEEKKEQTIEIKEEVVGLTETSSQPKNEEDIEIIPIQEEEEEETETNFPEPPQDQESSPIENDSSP
Assay [5] concerns the target human C1q (Quidel, San Diego, CA) (human) (UniProt P02745). The assay can be described thus: C1q binding ELISA (antibody coated up to 100 µg/ml, 2 µg/ml C1q added).
The target of assay [6] is FcγRIIb α subunit ECD-6His-GST fusion protein (UniProt P31994). Description: ELISA on coated receptor ECD-6His-GST, E27:chimeric IgE:VEGF immune complex.
Sequence of FcγRIIb α subunit ECD-6His-GST fusion protein (P31994 43-217): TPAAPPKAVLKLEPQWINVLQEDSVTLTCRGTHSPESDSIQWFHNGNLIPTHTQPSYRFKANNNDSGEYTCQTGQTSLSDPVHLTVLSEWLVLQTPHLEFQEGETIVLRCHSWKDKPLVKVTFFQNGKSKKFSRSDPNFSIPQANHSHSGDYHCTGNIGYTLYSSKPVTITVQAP
In assay [7] the target is FcγRIIa α subunit ECD-6His-GST fusion protein (UniProt P12318). The assay is described as above.
Sequence of FcγRIIa α subunit ECD-6His-GST fusion protein (P12318 34-217): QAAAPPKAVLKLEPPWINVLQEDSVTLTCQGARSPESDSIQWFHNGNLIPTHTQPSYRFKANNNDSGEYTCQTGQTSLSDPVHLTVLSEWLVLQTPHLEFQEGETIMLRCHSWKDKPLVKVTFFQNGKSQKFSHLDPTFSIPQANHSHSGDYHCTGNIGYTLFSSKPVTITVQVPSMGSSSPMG
Assay [8] has as its target FcγRI α subunit-GST fusion (UniProt P12314). The assay can be described thus: ELISA on coated FcγRI α subunit-GST, monomeric IgG at 10 µg/ml.
The target of assay [9] is FcγRIIIa α subunit ECD-6His-GST fusion protein (UniProt P08637). The assay can be described thus: ELISA on coated receptor ECD-6His-GST, E27:chimeric IgE:VEGF immune complex.
Sequence of FcγRIIIa α subunit ECD-6His-GST fusion protein (P08637 17-208): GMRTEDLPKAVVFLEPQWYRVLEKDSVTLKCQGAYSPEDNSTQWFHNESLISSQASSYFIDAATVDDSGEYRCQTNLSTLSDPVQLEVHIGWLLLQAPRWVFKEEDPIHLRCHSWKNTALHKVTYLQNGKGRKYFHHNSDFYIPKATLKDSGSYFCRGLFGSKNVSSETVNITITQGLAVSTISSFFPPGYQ

Sequence of FcγRI α subunit-GST fusion (P12314 16-292): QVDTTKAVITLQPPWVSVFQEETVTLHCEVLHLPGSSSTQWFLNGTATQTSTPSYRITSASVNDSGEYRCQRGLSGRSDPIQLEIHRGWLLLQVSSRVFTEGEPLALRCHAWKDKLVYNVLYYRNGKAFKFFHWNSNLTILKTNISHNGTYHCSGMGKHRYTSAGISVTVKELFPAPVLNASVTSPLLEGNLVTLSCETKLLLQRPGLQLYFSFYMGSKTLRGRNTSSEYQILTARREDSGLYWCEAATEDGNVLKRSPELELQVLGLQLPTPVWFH
Sequence of human C1q (Quidel, San Diego, CA) (human) (P02745 23-245 limits assumed, chain 1 of 3): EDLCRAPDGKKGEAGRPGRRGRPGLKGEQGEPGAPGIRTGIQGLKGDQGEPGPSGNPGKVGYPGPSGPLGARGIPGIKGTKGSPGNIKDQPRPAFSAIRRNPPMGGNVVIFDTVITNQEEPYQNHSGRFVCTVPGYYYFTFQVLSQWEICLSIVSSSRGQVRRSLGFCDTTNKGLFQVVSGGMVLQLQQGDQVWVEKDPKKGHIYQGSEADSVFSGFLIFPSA
Sequence of human C1q (Quidel, San Diego, CA) (human) (P02746 28-253 limits assumed, chain 2 of 3, further chain): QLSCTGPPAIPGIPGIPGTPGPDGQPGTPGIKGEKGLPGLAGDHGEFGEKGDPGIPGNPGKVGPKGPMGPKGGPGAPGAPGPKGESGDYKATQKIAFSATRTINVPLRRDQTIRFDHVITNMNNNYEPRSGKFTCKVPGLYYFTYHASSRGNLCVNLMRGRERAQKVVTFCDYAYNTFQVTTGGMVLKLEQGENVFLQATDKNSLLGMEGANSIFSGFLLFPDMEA
Sequence of human C1q (Quidel, San Diego, CA) (human) (P02747 29-245 limits assumed, chain 3 of 3, further chain): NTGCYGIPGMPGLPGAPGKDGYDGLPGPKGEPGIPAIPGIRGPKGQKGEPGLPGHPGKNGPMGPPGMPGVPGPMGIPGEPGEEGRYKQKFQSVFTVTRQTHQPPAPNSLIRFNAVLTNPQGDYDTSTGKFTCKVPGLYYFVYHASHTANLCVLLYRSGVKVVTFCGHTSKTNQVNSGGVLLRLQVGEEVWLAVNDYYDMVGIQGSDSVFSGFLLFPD

As for C2B8 mutant K326D (antibody), the EC50 in [1] amounted to 0.76 µg/mL. Moreover, in [2], the fold increase in binding to C1q compared to wild type is 2 fold. In [1], C2B8 mutant K326A (antibody) came in with an EC50 of 1.03 µg/mL and an increase in binding to C1q of 30%.

“C2B8 mutant with A327 of the human IgG1 constant region changed to glycine (antibody)”: the increase in C1q binding in [1] turned out to be 50%. C2B8 mutant E333G (antibody): the EC50 in assay [1] turned out to be 1.14 µg/mL. Take C2B8 mutant K326M (antibody): in assay [1], the EC50 was 0.67 µg/mL. Also, the fold increase in binding to C1q compared to wild type in assay [2] was 2 fold. C2B8 mutant E333Q (antibody) displayed an EC50 in [1] of 1.52 µg/mL. With C2B8 mutant K320A (antibody), the CDC (% of wild type) in assay [3] was 108. The CD20 binding (EC50), percentage of the wild type (% of wild type) in [4] is 102.

In assay [5], C2B8 mutant P331A (antibody) yielded a fold lower than wild type C2B8 in binding to C1q of 60 fold. In [4], the CD20 binding (EC50), percentage of the wild type (% of wild type) was 103.

For the substance C2B8 mutant E318A (antibody), in assay [1], the decrease in binding to C1q compared to wild type C2B8 worked out at 30%. This substance registered a CDC (% of wild type) in assay [3] of 108. In assay [4], this substance gave a CD20 binding (EC50), percentage of the wild type (% of wild type) of 89.

In the case of E27 anti-IgE antibody mutant K322A, the values for the binding, percentage of the wild type (% of wild type) in assay [6] and in [7] were 101 and 109, respectively. In the case of E27 anti-IgE antibody mutant P329A, the binding, percentage of the wild type (% of wild type) in [8] was found to be 104; in assay [9] it was 85. Substance C2B8 mutant K326G (antibody) returned an EC50 in [1] of 0.95 µg/mL. For E27 anti-IgE antibody mutant K320A, the binding, percentage of the wild type (% of wild type) in assay [8] was 102; in [6] it was 83; in assay [9] it was 72. In [1], C2B8 mutant K326W (antibody) gave an EC50 of 0.47 µg/mL and a fold increase in binding to C1q compared to wild type of 5 fold. For the same substance, the fold increase in binding to C1q compared to wild type in assay [2] stood at 2 fold. In [1], “C2B8 double mutant K326A-E333A (antibody)” had a fold better at binding human C1q than wild type C2B8 of 3 fold. In [3], this substance came in with a CDC compared to wild type C2B8 of 2 fold. In the case of C2B8 mutant E333D (antibody), the EC50 in [1] came to 1.22 µg/mL. C2B8 mutant P329A (antibody): in assay [4], the CD20 binding (EC50), percentage of the wild type (% of wild type) stood at 112. Consider E27 anti-IgE antibody mutant E318A, for which the binding, percentage of the wild type (% of wild type) in assay [8] was found to be 93; in assay [6] it was 106; in assay [9], 104; in assay [7], 113. For the substance “C2B8 double mutant K326M-E333S (antibody)”, in assay [1], the fold better at binding human C1q than wild type C2B8 was 3 fold. Also, the CDC compared to wild type C2B8 in assay [3] was 2 fold. Regarding “C2B8 double mutant K326W-E333S (antibody)”, the CDC compared to wild type C2B8 in assay [3] was found to be 3 fold.

Take C2B8 mutant E333S (antibody): in assay [1], the EC50 stood at 0.81 µg/mL and the fold increase in binding to C1q compared to wild type was found to be 2 fold. With C2B8 mutant K334A (antibody), in [1], the EC50 amounted to 1.07 µg/mL. For E27 anti-IgE antibody mutant P331A, the binding, percentage of the wild type (% of wild type) was determined as 74 in [8], 58 in assay [6], 73 in assay [9] and 86 in [7]. C2B8 mutant E333A (antibody): in assay [1], the EC50 was 0.98 µg/mL and the increase in binding to C1q is 30%. On to C2B8 mutant K326V (antibody), for which, in assay [1], the EC50 was determined as 1.3 µg/mL. On the same count and under the same terms, the figure for C2B8 mutant E333V (antibody) is 1.18 µg/mL.

Substance C2B8 mutant K326E (antibody) registered an EC50 in [1] of 1.08 µg/mL. The same substance came in with a fold increase in binding to C1q compared to wild type in [2] of 2 fold.
